Common to all, as to test: SPR
A general note: Surface plasmon resonance follows binding to a sensor surface in real time, without labels.

For assay [1], the target named is WT-RBD.
For assay [2], the target named is WT-RBD. The source holds these as a separate data set.
In assay [3] the target is WT-RBD. The source holds these as a separate data set.

Where two headings read alike, the source gives them in different places.

B1: 8H12 monoclonal antibody (mouse IgG) (antibody, V domains shown)
VH: EVKLEESGGGLVQPGGSMKLSCAASGFTFSDAWMDWVRQSPEKGLEWVAQIRRKANNHATYYAESVKGRFTISRDDSKSSVYLQMNSLRAEDTGIYYCIRGMTYAMDFWGQGTSVTVSS
VL: DIVMTQFQKFMSTSVGDRVSITCKASQNVRTAVAWYQQKPGQSPKAMIYLASNRHRGVPDRFTGSGCGTDFTLTISNVQCEDLADYFCLQHRNYPLTFGGGTKLEIK
Take B1: the Kd (usually a measure of binding affinity in units of concentration) in assay [1] worked out at 0.4 nM; in assay [2], 0.398 nM.

B2: 3E2 monoclonal antibody (mouse IgG) (antibody, V domains shown)
VH: EVMLVESGGGVVKPGGSLKLSCAASGFSFSTYAMSWIRQTPEKSLEWVAAISSGGTNTYYPGSVKGRFTISRDKAMNTLYLQLSSLRSEDTAMYYCVRHSGNYVDSVMDYWGQGTSVTVSS
VL: QIVLTQSPAIMSASLGEEITLTCSVSSSVSDMHWYQQKSGTSPKVFIYSTSNLASGVPSRFSGSGSGTFYSLTISSVEAEDAAYYYCHQWSSWTFGGGTKLEIK
In the case of B2, the Kd amounted to 0.00354 nM in assay [3] and 0.004 nM in assay [1].

These data come from article PMC10833452 (2023).
